Biological target: CD22 (recombinant, histidine-tagged; Thermo Fisher A42609) (human, UniProt P20273 20-687)
Assay: His-bead pull-down with qRT-PCR

Chain of CD22 (recombinant, histidine-tagged; Thermo Fisher A42609) (P20273 20-687, one chain of several): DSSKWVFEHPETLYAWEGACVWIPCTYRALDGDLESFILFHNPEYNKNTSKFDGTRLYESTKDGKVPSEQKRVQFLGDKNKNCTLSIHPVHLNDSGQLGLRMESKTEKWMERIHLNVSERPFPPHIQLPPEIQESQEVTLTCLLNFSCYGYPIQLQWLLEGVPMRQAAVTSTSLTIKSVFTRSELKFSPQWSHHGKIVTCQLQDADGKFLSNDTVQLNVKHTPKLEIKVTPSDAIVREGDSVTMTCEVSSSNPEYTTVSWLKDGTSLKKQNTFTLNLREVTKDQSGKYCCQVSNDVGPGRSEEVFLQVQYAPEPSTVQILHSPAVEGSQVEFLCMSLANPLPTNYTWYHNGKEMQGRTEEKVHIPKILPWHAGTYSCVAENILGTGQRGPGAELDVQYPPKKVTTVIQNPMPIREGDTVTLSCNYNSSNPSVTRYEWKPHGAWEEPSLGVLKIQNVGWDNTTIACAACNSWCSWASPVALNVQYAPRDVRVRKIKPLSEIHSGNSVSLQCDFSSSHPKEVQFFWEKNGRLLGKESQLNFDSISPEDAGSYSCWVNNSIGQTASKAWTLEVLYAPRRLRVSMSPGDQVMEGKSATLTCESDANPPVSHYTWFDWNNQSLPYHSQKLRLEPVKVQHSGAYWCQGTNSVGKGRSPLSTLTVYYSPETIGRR

B1: B-ALL1 (structured_RNA)
RNA: GGGAGGACGAUGCGGGCCAUUCGUCUUUUCGUCCCCAGACGACUCGCCCGA
modifications: 2'-fluoro pyrimidines (2'F-C, 2'F-U), unmodified purines
  binding result: binds
